The text below walks through data of article PMC10396304.

One may read the stoichiometry N as the number of molecules, sites or subunits per partner or assembly.

The target in test [1] is AoLadC, LOV-activated diguanylate cyclase from Aquella oligotrophica (Aquella oligotrophica). Description: SEC-MALS; Superdex 200 Increase 10/300 GL in storage buffer, 500-1000 ug protein, dark-adapted state (non-actinic light); miniDAWN MALS detector. For orientation: SEC sorts molecules by how far they enter the pores of the column.
Test [2] has the same target. Description: SEC-MALS; Superdex 200 Increase 10/300 GL in storage buffer, 500-1000 ug protein, illuminated state (blue light 465 nm for 1 min before loading and during the whole run); miniDAWN MALS detector.
Test [3] deals with SfLadC, LOV-activated diguanylate cyclase from Serratia fonticola AU-AP2C (Serratia fonticola AU-AP2C). Description: SEC-MALS; Superdex 200 Increase 10/300 GL in storage buffer, 500-1000 ug protein, dark-adapted state (non-actinic light); miniDAWN MALS detector.
The target is the same in test [4]. Description: SEC-MALS; Superdex 200 Increase 10/300 GL in storage buffer, 500-1000 ug protein, illuminated state (blue light 465 nm for 1 min before loading and during the whole run); miniDAWN MALS detector.
Test [5] concerns the target MsLadC, LOV-activated diguanylate cyclase from Methylotenera sp. (Methylotenera sp.). Description: SAXS; steady-state light-adapted sample (blue light 465 nm), BM29 ESRF, 20°C in the capillary, MsLadC 0.8 mg/ml, NT-AoLadC 0.9 mg/ml; molecular weight from Porod volume and volume of correlation.
The target is the same in test [6]. The test can be described thus: SEC-MALS; Superdex 200 Increase 10/300 GL in storage buffer, 500-1000 ug protein, dark-adapted state (non-actinic light); miniDAWN MALS detector.
The target is the same in test [7]. The test can be described thus: SEC-MALS; Superdex 200 Increase 10/300 GL in storage buffer, 500-1000 ug protein, illuminated state (blue light 465 nm for 1 min before loading and during the whole run); miniDAWN MALS detector.
Test [8] shares this target. The test can be described thus: SAXS; steady-state dark-adapted sample, BM29 ESRF, 20°C in the capillary, MsLadC 0.8 mg/ml, NT-AoLadC 0.9 mg/ml; molecular weight from Porod volume and volume of correlation.
In test [9] the target is DpLadC, LOV-activated diguanylate cyclase from Deinococcus peraridilitoris DSM 19664 (Deinococcus peraridilitoris DSM 19664). The test can be described thus: SEC-MALS; Superdex 200 Increase 10/300 GL in storage buffer, 500-1000 ug protein, dark-adapted state (non-actinic light); miniDAWN MALS detector.
The target is the same in test [10]. The test can be described thus: SEC-MALS; Superdex 200 Increase 10/300 GL in storage buffer, 500-1000 ug protein, illuminated state (blue light 465 nm for 1 min before loading and during the whole run); miniDAWN MALS detector.

On to “AoLadC, LOV-activated diguanylate cyclase from Aquella oligotrophica (enzyme)”, for which the stoichiometry N in test [1] and in test [2] was 2 throughout.

Turning to “SfLadC, LOV-activated diguanylate cyclase from Serratia fonticola AU-AP2C (enzyme)”, the stoichiometry N in [3] and in test [4] was 2 each time.

On to “MsLadC, LOV-activated diguanylate cyclase from Methylotenera sp. (enzyme)”, for which the stoichiometry N in test [5], in [6], in test [7] and in test [8] was 2 each time.

Consider “DpLadC, LOV-activated diguanylate cyclase from Deinococcus peraridilitoris DSM 19664 (enzyme)”, for which the stoichiometry N in test [9] and in [10] was 2 in each case.
